{"source": "the DeepSol protein solubility set", "data": [{"assay": "soluble on expression in E. coli; label from the status in PepcDB or PDB records", "values": [{"sequence": "MSAVFGAKYTLRFGHVLAPGEPYHQAFLKWAKAVEEKTNGDVRIEVFPSSQLGVEEDIIEQIRMGAPVGWNTDSARLGMYVKDIGVMNLAYFIDFMGAKTPEEAIEVLKKIKQSPTMQKWLKELEQRFGIKVLSFYWVQGYRHFVTNKPIRKPEDLNGLRIRTPGAPAWQESIRSLGAIPVAVNFGEIYTAVQTRAVDGAELTYANVYNGGLYEVLKYMSETGHFLLINFEIVSADWFNSLPKEYQKIIEEEMDKAGIEVSLKIMKELEEEYKQKCIEKGMAVIPASEIDKEAFMEKAKQAYKNLGLENALNQLIKEVKGEHHHHHH", "soluble on expression in E. coli": "soluble"}, {"sequence": "MSLSNYISIKGAKVNNLKNIDVNIPRNKLVVITGLSGSGKSSLAFDTLYAEGQRRYVESLSSYARQFLGRMSKPECDFIKGIPPAIAIEQKVNSRNPRSTVGTSTEIYEYLRLLYARVGKTYSPISGQLVKKHSIEDIVNCMLSFPKGTKYTVLTPMMPREGRTLLQQLEMDLKQGFTRIEVNREIVRIEDFLQQTAAEDKKQNIYLLVDRMTADDSKDSISRLTDSAETAMYEGDGNCLLRFYSADGSTQLFSFSTKFETDGIKFEEPNDQMFSFNSPLGACPECEGFGKVIGIDEHLVIPNRALSVYDGAVLCWRGEKMGEWLQEFIHEAPAHDFPIFAPYYELTQEQKDYLWHGPRNKACIDSFFKMLEENQYKIQYRVMLARYRGKTICPVCHGTRLKKEAGYVKVGGKSISQLVDLPIHDLKEFFRTLELDAHDTAIAKRILTEITNRINFLMDVGLGYLTLNRLSNSLSGGESQRINLATSLGSSLVGSLYILDEPSIGLHSRDTDRLIKVLRQLQELGNTVVVVEHDEEIIRAADYIIDIGPQAGRLGGQIVYQGNMNDLQRNEGHHHHHH", "soluble on expression in E. coli": "soluble"}, {"sequence": "MIAGGFGAGKTTAVGAVSEITPLSTEEYLTEASADVDSLAGLASKRTTTVAFDFGRLSLPDAPMPLELFLFGTPGQDRFVDLWYDLSRGAVGAVVLVDTRRLESSFTPVSFFEDIGLPFVVAVNRFDGAHRYHPEQVRAALELPAAVPVVTCDAREPNHVAGVLLALVDHAVNCAATTNRAGHTPSTTLQDALEHHHHHH", "soluble on expression in E. coli": "not soluble"}, {"sequence": "MADNGNEEDRNGYIINRTRFAADFHNRNEDLSEWEEMRGIEWDLILHSDGGQLYTQLVTRSRLQYEIPCKFLLEAQYGQVKVGENFDVTVSSRNHTFGMRIDQPADNGAIKITAYIDF", "soluble on expression in E. coli": "not soluble"}, {"sequence": "MPMPSEKTLVIIPTYNELENLPLITGRVRKANPNVDILIVDDNSPDGTGEAADALAASDSHIKVLHREGKGGLCGAYVAGFQWGLERDYTVLCEMDADGSHAPEQLHLLLAQVDNGADLVIGSRYVPGGKVVNWPKNRWVLSKGGNIYISLALGAGLSDMTAGYRAFRREVLETVDLNELSNAGYIFQVDMAWRVIQLGFDVREVPITFTEREIGESKLDGSFVKDSLLEVTKWGIHHRKEQITNLYTESSRLIRHEISSFRKKHLI", "soluble on expression in E. coli": "not soluble"}, {"sequence": "AMATAPRPLREQYLHFQPISTRWHDNDIYGHVNNVTYYAFFDTAVNTYLIERGGLDIQGGEVIGLVVSSSCDYFAPVAFPQRIEMGLRVARLGNSSVQYELALFLEGQREACAAGRFVHVFVERRSSRPVAIPQELRDALAALQSSAQ", "soluble on expression in E. coli": "soluble"}, {"sequence": "MQDVFIIGSRGLPAKYGGFETFVEELISHQSSKNIRYHVACLSDTKHKVHFDYKGADCFYLNPPKLGPARVIAYDMMAITYALSYSDQHQIQNPIFYVLGNTVGAFIAPFVKQIHNRGGRFFINPDGLEWKRSKWSRPVQAYLKFSEKQMTRQADLVISDNIGIDRYLKQVYPWSKTCFIAYGTQTQPSRLATADSKVRAYFQTFDIREKDYYLILGRFVPENNYETAIKEFMASSTKRDLVIICNHEGNAYFKQLLAETECDKDPRIKFVGTLYDKELLAYIREQAYAYIHGHEVGGTNPGLLEALAHTNLNLVLGVDFNQSVAKSAALYWTKQKGQLAELINQVDAGFDSDHLGKEAKAIIQEHYTWEKIVGEYEALFLNEH", "soluble on expression in E. coli": "not soluble"}, {"sequence": "MIPLKYLQAYPASLQDQVRQLIAENRLGEYLERRYPGRHDVQSDKALYAYTMNLKQEHLRNAPGLDKVLYDNKLDVVQRALGLHTAISRVQGGKLKAKKEIRVASLFKDAAPEFLRMIVVHELAHLKESEHNKAFYQLCQYMLPDYHQLEFDLRVYLTWKSLAAALEHHHHHH", "soluble on expression in E. coli": "not soluble"}, {"sequence": "SAKTDKLAQFLDSGIYESDEFNWFFLDTVRITNRSYTRFKVSPSAYYSRFFNSKQLNQHSSESNPKKRKRKQKNSSFHLPSVGEQASNLRHQEARLFLSKAHESFLKEIELLSLTKGLSDDNDDDDSSLLNKCCDDEVSFIELGGVWQAPFYEITLSFNLHCDNEGESCNEQRVFQVFNNLVVNEIGEEVEAEFSNRRYIMPRNSCFYMSDLHHIRNLVPEKISHYHIGRRCNSLIDVIYAAKSEEGYNLIVIDPPWENASAHQKSKYPTLPNQYFLSLPIKQLAHAEGALVALWVTNREKLLSFVEKELFPAWGIKYVATMYWLKVKPDGTLICDLDLVHHKPYEYLLLGYHFTELAGSEKRSDFKLLDKNQIIMSIPGDFSRKPPIGDILLKHTPGSQPARCLELFAREMAAGWTSWGNEPLHFQDSRYFLKV", "soluble on expression in E. coli": "soluble"}, {"sequence": "NVVLKDASELLDEVVVIGYGAVKKSDLTSSISTVKGKEITETVTGNAMDALQGKINGVQVTSGGGPGAQPKVLIRGVTTVNGTDPLYVVDGMPVGTNINFLNSNDIESMEVLKDASAAAIYGTRASNGVILITTKKGMAGK", "soluble on expression in E. coli": "not soluble"}, {"sequence": "MAHHHHHHMPLCASIPATVDTDTNTRALYLDDLDKCMKNFSSALASTMNAYQNLLTAFDQVAQVYGNVAQECGDEVRKPVGEFRDGMRDLKDKGGFETFNHEIHVGTIAVIEPVKSDLKKALKSLKCLRLKQKEYDAVRYDLEQTEKSYAKKNKPLVTSSSYKKTLAKRDKVKTSYDASREAFGEEINALQATTKSVLLQSLNNYLHCTAAFCGQLEATMNGYRTDVDHHGSTTFTNDQMDKLKEKAEAESMARRAKRKSEASNPFQTGYDVTSNNSHRNLPSVDDGLYQKKDSLVDTESVNRYPNAEFAPPMQNGGDDNFTLREQYDDGAPGDADDVNPLVDANNDE", "soluble on expression in E. coli": "soluble"}, {"sequence": "SLSFTLEEEDITGTWYVKAMVVDKDFPEDRRPRKVSPVKVTALGGGNLEATFTFMREDRCIQKKILMRKTEEPGKFSAYGGRKLIYLQELPGTDDYVFYCKDQRRGGLRYMGKLVGRNPNTNLEALEEFKKLVQHKGLSEEDIFMPLQTGSCVLEH", "soluble on expression in E. coli": "soluble"}, {"sequence": "MDIAKWVEHARTCYSTQLDTKIKVIGVIGKDYPDHGKGDNINCYLRENVFPVAATEDETCTIRGHFSEDDQILFLVMNGVDDVANIRKCLKSNPKSNYFDAMAESECQQIRMLHFLFISCHFIIIFEQTSRIDLELMRFLKKVNSARIQLRKKINQRLVASDLRDVSFNNRILSSAESEGRMVVPRLLIAFQRNNIRPDVNPGKKRELYEKLEKNLDNQFSDILKLYDLIDCGASSLCQLNETIPVVHLLNPKIVKRDIIGEMFEILMADAENTKISGNAGTLPSNNSFVKFLEDNFRSEKNEISLENVIELMNCLQCVLDGDLEEKHEKTAIQTFIKRIQNDHMEEARRLYTNAQRPGERRGADRFKDSEKPVKIRSKEEHLMRVEKPKKFCIFISFQNVLQFNEATHYIDSVVGVNSREALSQLQAQCNEMWQSDMRACESVSMMGRSCVRKIHPTFGDQTAPEHRWTAHDASNTMISTCVCGRKQLIRPEPFSVKEANSDFYDHPDFKCCRRLWRYQFQLYQEDSEEKDDIMWADRESNSLRAAKKMAQREDELAEEDTDLDIPESLLDPDSTSPSDEDDVRVRTMSSSESSSQESDAYLRPTSRRDESMASKTERELTIDHVKRMQKLELAGKSEDFLITVPNSMTTGKLPIFPSWHLTSLGDSSIYSHGAGLKNQPNFKIGGDYLSPVVVLLDVNFDVWNRDLNKIRSEDFSRKCGKDNKDDSARVKLFVGFEYECSRGHRFFVDYNGEPLIYSKGSNVIRESAHRSSLGNVLQADLPIRRPCTCRKLPLQSAQLQKVHVVTPKAPVHITIDPKVLIPTHEGVYGTGQEPLELHHSKYYILHLPTVYSGPSGAWMPGEFNPEKQGVWMGGALKVAYKPVMSFKW", "soluble on expression in E. coli": "not soluble"}, {"sequence": "MTIAIVIGTHGWAAEQLLKTAEMLLGEQENVGWIDFVPGENAETLIEKYNAQLAKLDTTKGVLFLVDTWGGSPFNAASRIVVDKEHYEVIAGVNIPMLVETLMARDDDPSFDELVALAVETGREGVKALKAKPFAG", "soluble on expression in E. coli": "soluble"}, {"sequence": "GSVDIEVQDLEEFALRPAPQGITIKCRITRDKKGMDRGMFPTYFLHLDREDGKKVFLLAGRKRKKSKTSNYLISVDPTDLSRGGDSYIGKLRSNLMGTKFTVYDNGVNPQKASSSTLESGTLRQELAAVCYETNVLGFKGPRKMSVIVPGMNMVHERVCIRPRNEHETLLARWQNKNTESIIELQNKTPVWNDDTQSYVLNFHGRVTQASVKNFQIIHGNDPDYIVMQFGRVAEDVFTMDYNYPLCALQAFAIALSSFDSKLACE", "soluble on expression in E. coli": "soluble"}, {"sequence": "MEALIAYSGRRFARPHYYANAHERDEVDIVPVQMAMHDARAAGTGIDREGFQIVKHTSAVTDFADREQVARIHMREIEELVRAETGADMVHVGAPGLLRFSEKSGRAGSLNNSMPARFAHIDISDRTAQAFGERGANGRPFVRCAAYNVWRAISPPPQDVPLAFCDARSLAPGDLIEADAVFDEPGKPEWSFEGLVVAHNPAHRWYFFPDMRIDEAVLFKTNDSDPARAHHVPHVAFDLPDCPADAPPRVSIEMRATAYWWALEHHHHHH", "soluble on expression in E. coli": "soluble"}, {"sequence": "MGSDKIHHHHHHMHYRQYGRTGRLISRFSLGLMRCLDSAAQLEAVLDAAWRLGINHFETAQSYGPSEAYLAQALHSLQLPRDQVIITTKILPDRDPQQMVEAVLRSRDRLGIDSIDCLALHGLNQPEHLQQAIAALPALQTLQAEGVFQHLGFSSHGDRELILEAIATDAFDFVSLHYYLLFQRHAPVIEAAAAKNLGIFIISPVDKGGLLHQPSAQLIEDCQPFSPLALNYRFLLSDRRITTLSFGAAKAEELAVLQDFVDADQPLSLEEAEAIARLEQVRQQRLGRDYCQQCYACLPCPEAINIPEVLRLRNLAIAHDMQAYGRYRYRMFENAGHWFPGQRGSRCTDCGDCLPRCPHHLPIADLVRDADQRLAGAPRRRLWGD", "soluble on expression in E. coli": "not soluble"}, {"sequence": "GQHSLQYFHTAVSRPGLGEPWFISVGYVDDTQFVRFDSDAENPRMEPRARWMEQEGPEYWERETQIAKGHEQSFRGSLRTAQSYYNQSKGGSHTLQWMYGCDMGSDGRLLRGYLQFAYEGRDYIALNEDLKTWTAVDMAAQITRRKWEQAGIAEKDQAYLEGTCMQSLRRYLELGKETLLRTDPPKAHVTHHPRSYGAVTLRCWALGFYPADITLTWQLNGEELTQDMELVETRPAGDGTFQKWASVVVPLGKEQNYTCHVNHEGLPEPLTLRW", "soluble on expression in E. coli": "soluble"}, {"sequence": "MSLAMINDSIEQVWRDFSIRPAAEADDATWCRRVYLDVIGRIPSLEELSEFMSDRDSNKRANLVDRLLNDDRYTEEYANHWSTVWTNLLIGRSGGTDRRDLTNRTGMQKYLRDSFAGNKTYDQMTYELVTAEGSTTPGNANFNGAVNFLVDKVNAEKGTLATSSVSRIFLGQQVQCTQCHNHPFNQWKQQKFWEFNAFFRQTRALRRFVDGTQDIESAELVSQDFAGEANDPEDALVFYELRNGLQKVAYPVFTDGTEIEKSGFVEDVNRREELGRLMLQSEYLDKMIVNRMWSMFLGYGFTRPIDDLGPHNPSSHPELLENLGKEFRANSYDLKKLITWITLSRPYQLASTLSASNEIDDPTIGESPKFSRFYLRQMSAEQLYASMVTASNAQSKGSYEQQEAERRRWLSQFVVAFGNDEGTETTTFNGSIPQALMLFNGDLTKNAISLEAGSFLDQLSQTGRSPKDRVTRLFLSGLARRPTKNEVSIASKLLVARKGDEPEMLQDMWWAILNSNEFIMQHEGHHHHHH", "soluble on expression in E. coli": "soluble"}, {"sequence": "MGHHHHHHSHMWKVVNLPTDLFNSVMNVGRFTEEIEWLKFLALACSALGVTITKTLKIVCEVLSCDHNGGLPRIPFSTFQFLYTYIAEVDGEICASHVSRMLNYIEQEVIGPDGLITVNDFTQNPRVWLE", "soluble on expression in E. coli": "not soluble"}]}]}
